Data: patent publication US20260201068A1 (UNIVERSIT DE GEN VE, published 2026)

Columns and labels:
[1] = target: human PTPRZ1 extracellular portion (domains 1 plus 2) knocked in and shown on Ge518_PTPRZ1-KI cells (human) (UniProt P23471); assay: cell-based or functional assay
[2] = target: T1, human PTPRZ1 extracellular portion (domains 1 plus 2) knocked in and shown on Ge518_PTPRZ1-KI cells (human, UniProt P23471 25-413, limits assumed); assay: flow cytometry on Ge518_PTPRZ1-KI cells, scFv conjugated to rabbit Fc, anti-rabbit IgG AlexaFluo488
T1 construct: domain: extracellular portion (domains 1 plus 2); parental Ge518 has low PTPRZ1 expression; also called receptor-type tyrosine-protein phosphatase zeta
Text: The GBM cell line Ge518, obtained in our lab from a patient tumor resection, was used as a tumor model to evaluate CAR T cell efficacy. As PTPRZ1 expression was low in these cells, the antigen was overexpressed by introducing (knock-in) an extracellular portion (domains 1 plus 2) of the human PTPRZ1 molecule under the EF1a promoter, using a 3rd generation LV vector with puromycin selection.

T1 sequence (P23471 25-413 limits assumed): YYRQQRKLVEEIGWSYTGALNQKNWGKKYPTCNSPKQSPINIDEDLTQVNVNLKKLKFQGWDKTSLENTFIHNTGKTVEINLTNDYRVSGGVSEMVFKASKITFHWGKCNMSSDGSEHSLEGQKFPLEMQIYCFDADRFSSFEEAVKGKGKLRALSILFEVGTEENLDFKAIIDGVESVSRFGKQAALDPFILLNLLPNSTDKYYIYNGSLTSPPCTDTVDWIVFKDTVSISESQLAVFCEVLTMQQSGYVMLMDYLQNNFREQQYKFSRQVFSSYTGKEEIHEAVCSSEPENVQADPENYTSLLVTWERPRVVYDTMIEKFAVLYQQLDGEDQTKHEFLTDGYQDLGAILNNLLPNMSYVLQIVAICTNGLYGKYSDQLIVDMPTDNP
human PTPRZ1 extracellular portion (domains 1 plus 2) knocked in and shown on Ge518_PTPRZ1-KI cells (human), sequence (P23471 25-413 limits assumed): as above

| Binder | killing of Ge518 PTPRZ1-KI target cells by CAR T cells, E:T 3:1 [1] [%] | level of recognition (percent, flow cytometry) [2] [%] |
| --- | --- | --- |
| anti-PTPRZ1 471_28z chimeric antigen receptor (on RNA CAR T cells) (protein, part only; not given: CD3zeta signalling domain, part only) chain, part: MAEVQLVESGGGLVQPGGSLRLSCAASGFTFSSYSMNWVRQAPGKGLEWVSYISSSSSTIYYADSVKGRFTISRDNAKNSLYLQMNSLRAEDTAVYYCARPGYGDFPGAFDIWGQGTLVTVSSGGGGSGGGGSGGGGSTQSALTQPASVSGSPGQSITISCTGTSSDVGGYNYVSWYQQHPGKAPKLMIYEVSNRPSGVSNRFSGSKSGNTASLTISGLQAEDEADYYCSSYDWATYGSVFGGGTKLTVLGAAESKYGPPCPPCPFWVLVVVGGVLACYSLLVTVAFIIFWVRSKRSRGGHSDYMNMTPRRPGPTRKHYQPYAPPRDFAAYRS | 80 |  |
| anti-PTPRZ1 scFv RRB473 conjugated to a rabbit Fc (Fc fusion, scFv conjugated to a rabbit Fc for flow cytometry; also called scFv 473; not shown: rabbit Fc) scFv: MAQVQLVESGGGVVQPGRSLRLSCAASGFTFSSYAMHWVRQAPGKGLEWVAVISYDGSNKYYADSVKGRFTISRDNSKNTLYLQMNSLRAEDTAVYYCARDQDDSSDAFDIWGQGTLVTVSSGGGGSGGGGSGGGGSTQSVLTQPPSVSAAPGQKVTISCSGSSSNIGNNYVSWYQQLPGTAPKLLIYDNNKRPSGIPDRFSGSKSGTSATLGITGLQTGDEADYYCGTYDYIATRAVFGGGTKLTVLGAA |  | ≥ 80 |
| anti-PTPRZ1 scFv RRB476 conjugated to a rabbit Fc (Fc fusion, scFv conjugated to a rabbit Fc for flow cytometry; also called scFv 476; not shown: rabbit Fc) scFv: MAQVQLVESGGGVVQPGRSLRLSCAASGFTFSSYAMHWVRQAPGKGLEWVAVISYDGSNKYYADSVKGRFTISRDNSKNTLYLQMNSLRAEDTAVYYCARDQDDSSDAFDIWGQGTLVTVSSGGGGSGGGGSGGGGSTQSVLTQPPSVSAAPGQKVTISCSGSSSNIGNNYVSWYQQLPGTAPKLLIYDNNKRPSGIPDRFSGSKSGTSATLGITGLQTGDEADYYCGTWDYKVSRLVFGGGTKLTVLGAA |  | ≥ 80 |
| anti-PTPRZ1 scFv RRB469 conjugated to a rabbit Fc (Fc fusion, Flow cytometry was done with the scFvs conjugated to a rabbit Fc, detected with anti-rabbit IgG AlexaFluo488; also called scFv 469; not shown: rabbit Fc) scFv: MAQVQLVESGGGVVQPGRSLRLSCAASGFTFSSYAMHWVRQAPGKGLEWVAVISYDGSNKYYADSVKGRFTISRDNSKNTLYLQMNSLRAEDTAVYYCARGSGYSYGPGYDAFDIWGQGTLVTVSSGGGGSGGGGSGGGGSTNFMLTQPHSVSESPGKTVTISCTRSSGSIASNYVQWYQQRPGSSPTTVIYEDNQRPSGVPDRFSGSIDSSSNSASLTISGLKTEDEADYYCQSWDPVFGVFGGGTKLTVLGAA |  | ≥ 80 |
| anti-PTPRZ1 scFv RRB471 conjugated to a rabbit Fc (Fc fusion, scFv conjugated to a rabbit Fc for flow cytometry; not shown: rabbit Fc) scFv: MAEVQLVESGGGLVQPGGSLRLSCAASGFTFSSYSMNWVRQAPGKGLEWVSYISSSSSTIYYADSVKGRFTISRDNAKNSLYLQMNSLRAEDTAVYYCARPGYGDFPGAFDIWGQGTLVTVSSGGGGSGGGGSGGGGSTQSALTQPASVSGSPGQSITISCTGTSSDVGGYNYVSWYQQHPGKAPKLMIYEVSNRPSGVSNRFSGSKSGNTASLTISGLQAEDEADYYCSSYDWATYGSVFGGGTKLTVLGAA |  | ≥ 80 |
